# From patent CN101151278A
# Columns and labels:
# 人FcRn (human) = 人FcRn (human) (UniProt P55899); test: BIAcore, FcRn on CM5 chip, pH 6.0
# 大鼠FcRn (rat) = 大鼠FcRn (rat) (UniProt P13599); test: BIAcore, FcRn on CM5 chip
# [1] = biological target: T1, CD20 on WIL2-S cells (human) (UniProt P11836); test: cell-based or functional assay
# T1 sequence (looked up): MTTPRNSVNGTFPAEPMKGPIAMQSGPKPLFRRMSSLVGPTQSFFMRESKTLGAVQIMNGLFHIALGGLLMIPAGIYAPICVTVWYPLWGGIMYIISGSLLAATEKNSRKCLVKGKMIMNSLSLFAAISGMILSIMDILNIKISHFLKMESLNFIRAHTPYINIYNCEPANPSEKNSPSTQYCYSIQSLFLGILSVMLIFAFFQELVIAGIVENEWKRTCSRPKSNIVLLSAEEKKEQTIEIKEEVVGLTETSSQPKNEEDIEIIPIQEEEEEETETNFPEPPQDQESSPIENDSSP
# Sequence of 人FcRn (human) (P55899 24-297 limits assumed, chain 1 of 2): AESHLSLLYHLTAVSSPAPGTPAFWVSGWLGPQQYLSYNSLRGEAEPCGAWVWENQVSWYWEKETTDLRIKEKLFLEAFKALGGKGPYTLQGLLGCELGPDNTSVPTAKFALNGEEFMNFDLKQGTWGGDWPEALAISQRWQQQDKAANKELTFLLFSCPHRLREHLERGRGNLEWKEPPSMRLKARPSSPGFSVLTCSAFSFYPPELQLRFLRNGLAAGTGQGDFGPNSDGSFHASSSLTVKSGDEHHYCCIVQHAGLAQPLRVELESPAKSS
# Sequence of 人FcRn (human) (P61769 21-119 limits assumed, chain 2 of 2, further chain): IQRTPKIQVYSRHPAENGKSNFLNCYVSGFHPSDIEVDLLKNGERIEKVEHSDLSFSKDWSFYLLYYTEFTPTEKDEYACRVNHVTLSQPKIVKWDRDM
# Sequence of 大鼠FcRn (rat) (P13599 23-298 limits assumed, chain 1 of 2): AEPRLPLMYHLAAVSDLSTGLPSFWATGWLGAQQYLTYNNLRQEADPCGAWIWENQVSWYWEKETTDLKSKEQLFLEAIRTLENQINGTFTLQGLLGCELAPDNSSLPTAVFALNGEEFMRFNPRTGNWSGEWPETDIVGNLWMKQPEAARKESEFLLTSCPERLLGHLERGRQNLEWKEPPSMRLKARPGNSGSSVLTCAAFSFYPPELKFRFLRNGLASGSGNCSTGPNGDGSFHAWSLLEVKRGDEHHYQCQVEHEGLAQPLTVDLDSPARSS
# Sequence of 大鼠FcRn (rat) (P07151 21-119 limits assumed, chain 2 of 2, further chain): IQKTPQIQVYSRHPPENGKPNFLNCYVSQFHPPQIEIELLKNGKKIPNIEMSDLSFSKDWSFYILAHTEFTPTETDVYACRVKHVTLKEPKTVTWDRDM
substance,measurement,setting,value
Fc变体 N434A+E380A+T307A (from UniProt P01857 114-330) (other; other documents disagree on this pair),fold increase in affinity vs wild-type Fc,人FcRn (human),14 fold
Fc变体 N434F (from UniProt P01857 114-330) (other; other documents disagree on this pair),fold increase in affinity vs wild-type Fc,人FcRn (human),9 fold
Fc变体 N434W (from UniProt P01857 114-330),fold increase in binding vs wild-type Fc,大鼠FcRn (rat),10 fold
Rituxan (antibody),"ADCC on WIL2-S cells with NK cells, EC50(变体)/EC50(2H7.v16)",[1],5.3
same,"ADCC on WIL2-S cells with NK cells, EC50(变体)/EC50(Rituxan)",[1],1
same,"CDC on WIL2-S cells, EC50(变体)/EC50(Rituxan)",[1],1
